Target: voltage-sensitive sodium channel of nerve membrane (house fly, Musca domestica, third instar larvae) (Musca domestica)

toxin 4 of the scorpion Leiurus quinquestriatus (peptide)
activity of insect peripheral nerve preparations: > 500 nM
